# Literature values in publication PMC8945002.
# Target: BfrB (recombinant) (Pseudomonas aeruginosa) (UniProt Q9HY79)
# Test: SPR
# Chain of BfrB (recombinant) (Pseudomonas aeruginosa) (Q9HY79 whole entry): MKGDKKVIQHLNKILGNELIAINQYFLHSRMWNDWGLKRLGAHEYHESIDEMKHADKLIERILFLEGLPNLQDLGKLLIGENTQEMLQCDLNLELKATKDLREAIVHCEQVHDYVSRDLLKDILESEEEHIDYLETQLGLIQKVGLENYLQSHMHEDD
# Chain of Bfd (Q9HY80 whole entry): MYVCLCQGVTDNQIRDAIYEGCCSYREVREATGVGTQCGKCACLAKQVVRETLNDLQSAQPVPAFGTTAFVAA
substance,measurement,value
Bfd (from UniProt Q9HY80),Kd,3.3 µM
